Key:
HeLa Kyoto [1] = test: solubility in G1/S (NP-40 vs SDS abundance) (log2 ratio); higher = more soluble; conditions: cell cycle stage: G1/S
HeLa Kyoto [2] = test: melting temperature (median over replicates), in situ; higher = more thermally stable
HeLa Kyoto [3] = test: solubility change mitosis vs G1/S (difference of NP-40 vs SDS log2 ratios) (log2 ratio difference); higher = more soluble in mitosis
HeLa Kyoto [4] = test: thermal stability score vs G1/S (z-score of summed log2 fold changes over temperatures); higher = more thermally stable than in G1/S
[5] = cell cycle stage: early G1 (4.5 h after nocodazole release)
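For melting temperature (median over replicates), in situ in this document: HeLa Kyoto cells synchronized by double thymidine or nocodazole block, proteins quantified by TMT10plex mass spectrometry, three independent biological replicates.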
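For solubility change mitosis vs G1/S (difference of NP-40 vs SDS log2 ratios) in this document: synchronized HeLa Kyoto cells (double thymidine block for G1/S, nocodazole release for mitosis), protein amounts in NP-40 versus SDS lysates quantified by mass spectrometry, three biological replicates.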
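For solubility in G1/S (NP-40 vs SDS abundance) in this document: HeLa Kyoto cells arrested at G1/S by double thymidine block, proteins quantified by TMT10plex mass spectrometry in mild NP-40 versus SDS extracts, three biological replicates.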
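For thermal stability score vs G1/S (z-score of summed log2 fold changes over temperatures) in this document: synchronized HeLa Kyoto cells, proteins quantified by TMT10plex mass spectrometry, three biological replicates, mitosis taken 0.5 h after nocodazole release, G1/S directly after double thymidine block.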

| Substance | solubility in G1/S (log2) (HeLa Kyoto [1]) | melting temperature (HeLa Kyoto [2]; cell cycle stage: G1/S) | melting temperature (HeLa Kyoto [2]; cell cycle stage: mitosis) | solubility change mitosis (log2) (HeLa Kyoto [3]) | thermal stability score (HeLa Kyoto [4]; [5]) | thermal stability score (HeLa Kyoto [4]; cell cycle stage: mitosis) |
| --- | --- | --- | --- | --- | --- | --- |
| MGAAHSASEEVRELEGKTGFSSDQIEQLHRRFKQLSGDQPTIRKENFNNVPDLELNPIRSKIVRAFFDNRNLRKGPSGLADEINFEDFLTIMSYFRPIDTTMDEEQVELSRKEKLRFLFHMYDSDSDGRITLEEYRNVVEELLSGNPHIEKESARSIADGAMMEAASVCMGQMEPDQVYEGITFEDFLKIWQGIDIETKMHVRFLNMETMALCH [TESC] | 0.101 | 51.1 °C | 51.7 °C | 0.0705 | 0.145 | 1.31 |
| MELSQMSELMGLSVLLGLLALMATAAVARGWLRAGEERSGRPACQKANGFPPDKSSGSKKQKQYQRIRKEKPQQHNFTHRLLAAALKSHSGNISCMDFSSNGKYLATCADDRTIRIWSTKDFLQREHRSMRANVELDHATLVRFSPDCRAFIVWLANGDTLRVFKMTKREDGGYTFTATPEDFPKKHKAPVIDIGIANTGKFIMTASSDTTVLIWSLKGQVLSTINTNQMNNTHAAVSPCGRFVASCGFTPDVKVWEVCFGKKGEFQEVVRAFELKGHSAAVHSFAFSNDSRRMASVSKDGTWKLWDTDVEYKKKQDPYLLKTGRFEEAAGAAPCRLALSPNAQVLALASGSSIHLYNTRRGEKEECFERVHGECIANLSFDITGRFLASCGDRAVRLFHNTPGHRAMVEEMQGHLKRASNESTRQRLQQQLTQAQETLKSLGALKK [TBL2] | -0.571 | 51 °C | 50.4 °C | 0.307 | 0.379 | -0.532 |
| RAB14 | 0.0669 | 60.6 °C | 58.8 °C | -0.0891 | -1.89 | -3.07 |
| MLCSLLLCECLLLVAGYAHDDDWIDPTDMLNYDAASGTMRKSQAKYGISGEKDVSPDLSCADEISECYHKLDSLTYKIDECEKKKREDYESQSNPVFRRYLNKILIEAGKLGLPDENKGDMHYDAEIILKRETLLEIQKFLNGEDWKPGALDDALSDILINFKFHDFETWKWRFEDSFGVDPYNVLMVLLCLLCIVVLVATELWTYVRWYTQLRRVLIISFLFSLGWNWMYLYKLAFAQHQAEVAKMEPLNNVCAKKMDWTGSIWEWFRSSWTYKDDPCQKYYELLLVNPIWLVPPTKALAVTFTTFVTEPLKHIGKGTGEFIKALMKEIPALLHLPVLIIMALAILSFCYGAGKSVHVLRHIGGPESEPPQALRPRDRRRQEEIDYRPDGGAGDADFHYRGQMGPTEQGPYAKTYEGRREILRERDVDLRFQTGNKSPEVLRAFDVPDAEAREHPTVVPSHKSPVLDTKPKETGGILGEGTPKESSTESSQSAKPVSGQDTSGNTEGSPAAEKAQLKSEAAGSPDQGSTYSPARGVAGPRGQDPVSSPCG [CLCC1] | -0.212 | 56 °C | 58.6 °C | -0.123 | -0.638 | 1.19 |
| MSQVLFHQLVPLQVKCKDCEERRVSIRMSIELQSVSNPVHRKDLVIRLTDDTDPFFLYNLVISEEDFQSLKFQQGLLVDFLAFPQKFIDLLQQCTQEHAKEIPRFLLQLVSPAAILDNSPAFLNVVETNPFKHLTHLSLKLLPGNDVEIKKFLAGCLKCSKEEKLSLMQSLDDATKQLDFTRKTLAEKKQELDKLRNEWASHTAALTNKHSQELTNEKEKALQAQVQYQQQHEQQKKDLEILHQQNIHQLQNRLSELEAANKDLTERKYKGDSTIRELKAKLSGVEEELQRTKQEVLSLRRENSTLDVECHEKEKHVNQLQTKVAVLEQEIKDKDQLVLRTKEAFDTIQEQKVVLEENGEKNQVQLGKLEATIKSLSAELLKANEIIKKLQGDLKTLMGKLKLKNTVTIQQEKLLAEKEEKLQKEQKELQDVGQSLRIKEQEVCKLQEQLEATVKKLEESKQLLKNNEKLITWLNKELNENQLVRKQDVLGPSTTPPAHSSSNTIRSGISPNLNVVDGRLTYPTCGIGYPVSSAFAFQNTFPHSISAKNTSHPGSGTKVQFNLQFTKPNASLGDVQSGATISMPCSTDKENGENVGLESKYLKKREDSIPLRGLSQNLFSNSDHQRDGTLGALHTSSKPTALPSASSAYFPGQLPNS [SASS6] | 0.537 | 48.2 °C | 49.3 °C | -0.0259 | 0.985 | 0.832 |
| MSAIPAEESDQLLIRPLGAGQEVGRSCIILEFKGRKIMLDCGIHPGLEGMDALPYIDLIDPAEIDLLLISHFHLDHCGALPWFLQKTSFKGRTFMTHATKAIYRWLLSDYVKVSNISADDMLYTETDLEESMDKIETINFHEVKEVAGIKFWCYHAGHVLGAAMFMIEIAGVKLLYTGDFSRQEDRHLMAAEIPNIKPDILIIESTYGTHIHEKREEREARFCNTVHDIVNRGGRGLIPVFALGRAQELLLILDEYWQNHPELHDIPIYYASSLAKKCMAVYQTYVNAMNDKIRKQININNPFVFKHISNLKSMDHFDDIGPSVVMASPGMMQSGLSRELFESWCTDKRNGVIIAGYCVEGTLAKHIMSEPEEITTMSGQKLPLKMSVDYISFSAHTDYQQTSEFIRALKPPHVILVHGEQNEMARLKAALIREYEDNDEVHIEVHNPRNTEAVTLNFRGEKLAKVMGFLADKKPEQGQRVSGILVKRNFNYHILSPCDLSNYTDLAMSTVKQTQAIPYTGPFNLLCYQLQKLTGDVEELEIQEKPALKVFKNITVIQEPGMVVLEWLANPSNDMYADTVTTVILEVQSNPKIRKGAVQKVSKKLEMHVYSKRLEIMLQDIFGEDCVSVKDDSILSVTVDGKTANLNLETRTVECEEGSEDDESLREMVELAAQRLYEALTPVH [CPSF3] | -0.183 | 51.2 °C | 50.5 °C | -0.00173 | 0.918 | 1.38 |
| MSFRKVVRQSKFRHVFGQPVKNDQCYEDIRVSRVTWDSTFCAVNPKFLAVIVEASGGGAFLVLPLSKTGRIDKAYPTVCGHTGPVLDIDWCPHNDEVIASGSEDCTVMVWQIPENGLTSPLTEPVVVLEGHTKRVGIIAWHPTARNVLLSAGCDNVVLIWNVGTAEELYRLDSLHPDLIYNVSWNHNGSLFCSACKDKSVRIIDPRRGTLVAEREKAHEGARPMRAIFLADGKVFTTGFSRMSERQLALWDPENLEEPMALQELDSSNGALLPFYDPDTSVVYVCGKGDSSIRYFEITEEPPYIHFLNTFTSKEPQRGMGSMPKRGLEVSKCEIARFYKLHERKCEPIVMTVPRKSDLFQDDLYPDTAGPEAALEAEEWVSGRDADPILISLREAYVPSKQRDLKISRRNVLSDSRPAMAPGSSHLGAPASTTTAADATPSGSLARAGEAGKLEEVMQELRALRALVKEQGDRICRLEEQLGRMENGDA [CORO1B] | -0.0585 | 51.1 °C | 50.6 °C | -0.0904 | -0.395 | -0.683 |
| ASAP1 | 0.0639 | 50.5 °C | 51.1 °C | -0.0861 | 0.472 | 0.143 |
| MEGKWLLCMLLVLGTAIVEAHDGHDDDVIDIEDDLDDVIEEVEDSKPDTTAPPSSPKVTYKAPVPTGEVYFADSFDRGTLSGWILSKAKKDDTDDEIAKYDGKWEVEEMKESKLPGDKGLVLMSRAKHHAISAKLNKPFLFDTKPLIVQYEVNFQNGIECGGAYVKLLSKTPELNLDQFHDKTPYTIMFGPDKCGEDYKLHFIFRHKNPKTGIYEEKHAKRPDADLKTYFTDKKTHLYTLILNPDNSFEILVDQSVVNSGNLLNDMTPPVNPSREIEDPEDRKPEDWDERPKIPDPEAVKPDDWDEDAPAKIPDEEATKPEGWLDDEPEYVPDPDAEKPEDWDEDMDGEWEAPQIANPRCESAPGCGVWQRPVIDNPNYKGKWKPPMIDNPSYQGIWKPRKIPNPDFFEDLEPFRMTPFSAIGLELWSMTSDIFFDNFIICADRRIVDDWANDGWGLKKAADGAAEPGVVGQMIEAAEERPWLWVVYILTVALPVFLVILFCCSGKKQTSGMEYKKTDAPQPDVKEEEEEKEEEKDKGDEEEEGEEKLEEKQKSDAEEDGGTVSQEEEDRKPKAEEDEILNRSPRNRKPRRE [CANX] | 0.339 | 53.7 °C | 53.9 °C | -0.0953 | 2.71 | 3.35 |
| MDSALSDPHNGSAEAGGPTNSTTRPPSTPEGIALAYGSLLLMALLPIFFGALRSVRCARGKNASDMPETITSRDAARFPIIASCTLLGLYLFFKIFSQEYINLLLSMYFFVLGILALSHTISPFMNKFFPASFPNRQYQLLFTQGSGENKEEIINYEFDTKDLVCLGLSSIVGVWYLLRKHWIANNLFGLAFSLNGVELLHLNNVSTGCILLGGLFIYDVFWVFGTNVMVTVAKSFEAPIKLVFPQDLLEKGLEANNFAMLGLGDVVIPGIFIALLLRFDISLKKNTHTYFYTSFAAYIFGLGLTIFIMHIFKHAQPALLYLVPACIGFPVLVALAKGEVTEMFSYEESNPKDPAAVTESKEGTEASASKGLEKKEK [HM13] | -0.106 | 60.5 °C | 59.8 °C | -0.167 | -1.07 | -1.15 |
| MVRKPVVSTISKGGYLQGNVNGRLPSLGNKEPPGQEKVQLKRKVTLLRGVSIIIGTIIGAGIFISPKGVLQNTGSVGMSLTIWTVCGVLSLFGALSYAELGTTIKKSGGHYTYILEVFGPLPAFVRVWVELLIIRPAATAVISLAFGRYILEPFFIQCEIPELAIKLITAVGITVVMVLNSMSVSWSARIQIFLTFCKLTAILIIIVPGVMQLIKGQTQNFKDAFSGRDSSITRLPLAFYYGMYAYAGWFYLNFVTEEVENPEKTIPLAICISMAIVTIGYVLTNVAYFTTINAEELLLSNAVAVTFSERLLGNFSLAVPIFVALSCFGSMNGGVFAVSRLFYVASREGHLPEILSMIHVRKHTPLPAVIVLHPLTMIMLFSGDLDSLLNFLSFARWLFIGLAVAGLIYLRYKCPDMHRPFKVPLFIPALFSFTCLFMVALSLYSDPFSTGIGFVITLTGVPAYYLFIIWDKKPRWFRIMSEKITRTLQIILEVVPEEDKL [SLC7A11] | -0.0116 |  | 57.5 °C | -0.169 | 0.372 | 0.123 |
| MAEPLQPDPGAAEDAAAQAVETPGWKAPEDAGPQPGSYEIRHYGPAKWVSTSVESMDWDSAIQTGFTKLNSYIQGKNEKEMKIKMTAPVTSYVEPGSGPFSESTITISLYIPSEQQFDPPRPLESDVFIEDRAEMTVFVRSFDGFSSAQKNQEQLLTLASILREDGKVFDEKVYYTAGYNSPVKLLNRNNEVWLIQKNEPTKENE [HEBP2] | 0.297 | 53.1 °C | 53.6 °C | -0.0442 | 0.153 | -0.49 |
| MPSPRPVLLRGARAALLLLLPPRLLARPSLLLRRSLSAASCPPISLPAAASRSSMDGAGAEEVLAPLRLAVRQQGDLVRKLKEDKAPQVDVDKAVAELKARKRVLEAKELALQPKDDIVDRAKMEDTLKRRFFYDQAFAIYGGVSGLYDFGPVGCALKNNIIQTWRQHFIQEEQILEIDCTMLTPEPVLKTSGHVDKFADFMVKDVKNGECFRADHLLKAHLQKLMSDKKCSVEKKSEMESVLAQLDNYGQQELADLFVNYNVKSPITGNDLSPPVSFNLMFKTFIGPGGNMPGYLRPETAQGIFLNFKRLLEFNQGKLPFAAAQIGNSFRNEISPRSGLIRVREFTMAEIEHFVDPSEKDHPKFQNVADLHLYLYSAKAQVSGQSARKMRLGDAVEQGVINNTVLGYFIGRIYLYLTKVGISPDKLRFRQHMENEMAHYACDCWDAESKTSYGWIEIVGCADRSCYDLSCHARATKVPLVAEKPLKEPKTVNVVQFEPSKGAIGKAYKKDAKLVMEYLAICDECYITEMEMLLNEKGEFTIETEGKTFQLTKDMINVKRFQKTLYVEEVVPNVIEPSFGLGRIMYTVFEHTFHVREGDEQRTFFSFPAVVAPFKCSVLPLSQNQEFMPFVKELSEALTRHGVSHKVDDSSGSIGRRYARTDEIGVAFGVTIDFDTVNKTPHTATLRDRDSMRQIRAEISELPSIVQDLANGNITWADVEARYPLFEGQETGKKETIEE [GARS] | 0.0194 | 59.4 °C | 59.5 °C | -0.136 | -2.91 | -2.03 |

Source: the supplement of paper PMC5998384
